Source: patent publication US20150044226A1 (SBI BIOTECH, published 2015)
Substitutions are numbered along the chain they refer to.

Columns and labels:
[1] = target: T1, cynomolgus monkey PLD4 (cynomolgus monkey, UniProt Q96BZ4 1-506 (human entry)); assay: FACS, hybridoma culture supernatant on cynomolgus monkey PLD4-CT125 cells; non-binding implied (8C11 is not among the seven)
T1 construct: also called cynomolgus monkey PLD4 protein; cyno PLD4
T1 chain: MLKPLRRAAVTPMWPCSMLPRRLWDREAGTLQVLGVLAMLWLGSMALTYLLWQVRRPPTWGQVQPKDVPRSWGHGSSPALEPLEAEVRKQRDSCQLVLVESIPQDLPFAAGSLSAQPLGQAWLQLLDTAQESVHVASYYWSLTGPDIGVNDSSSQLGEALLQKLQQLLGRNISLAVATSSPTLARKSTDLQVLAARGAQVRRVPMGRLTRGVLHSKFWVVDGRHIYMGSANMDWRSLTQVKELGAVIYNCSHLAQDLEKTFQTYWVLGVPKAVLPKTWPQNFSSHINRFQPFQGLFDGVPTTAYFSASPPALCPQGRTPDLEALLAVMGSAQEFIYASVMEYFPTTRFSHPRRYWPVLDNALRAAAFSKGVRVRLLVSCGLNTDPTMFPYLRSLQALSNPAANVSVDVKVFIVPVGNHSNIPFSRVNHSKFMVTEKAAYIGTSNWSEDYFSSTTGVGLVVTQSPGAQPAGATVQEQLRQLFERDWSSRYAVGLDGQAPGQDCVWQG

[2] = target: T2, rhesus monkey PLD4 (rhesus monkey, UniProt Q96BZ4 1-506 (human entry)); assay: FACS, hybridoma culture supernatant on rhesus monkey PLD4-293T transient transfectants; non-binding implied (8C11 is not among the seven)
T2 construct: also called rhesus monkey PLD4 protein
T2 chain: T1 chain with R56C, K66R, P78L

[3] = target: T3, human PLD4 (phospholipase D4) protein (human, UniProt Q96BZ4 1-506); assay: FACS titration (0.001 to 30 µg/mL) of purified antibody on human PLD4-CT125 cells, positive cell frequency fitted with GraphPad Prism (FIG. 19)
T3 construct: Type II transmembrane protein, 506 a.a; also called hPLD4; HuPLD4
T3 sequence: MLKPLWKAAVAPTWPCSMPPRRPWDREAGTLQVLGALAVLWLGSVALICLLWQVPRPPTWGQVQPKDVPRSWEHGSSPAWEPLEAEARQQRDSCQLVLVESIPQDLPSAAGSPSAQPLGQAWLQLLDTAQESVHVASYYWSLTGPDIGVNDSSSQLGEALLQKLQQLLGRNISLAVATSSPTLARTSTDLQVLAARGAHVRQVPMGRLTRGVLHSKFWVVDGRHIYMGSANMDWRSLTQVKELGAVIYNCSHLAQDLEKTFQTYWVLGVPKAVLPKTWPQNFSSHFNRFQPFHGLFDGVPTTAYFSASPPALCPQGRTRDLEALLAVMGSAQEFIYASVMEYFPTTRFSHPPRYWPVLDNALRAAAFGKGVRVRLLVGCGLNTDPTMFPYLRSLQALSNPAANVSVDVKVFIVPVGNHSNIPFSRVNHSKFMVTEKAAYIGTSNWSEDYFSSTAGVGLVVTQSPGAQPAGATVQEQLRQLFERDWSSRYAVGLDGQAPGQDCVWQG
Procedure: For binding ability of the purified antibody, human PLD4-CT125 expression stable cell strain was reacted to nearly 100% of the positive staining rate at low concentration to high concentration (0.001 μg/mL to 30 μg/mL) of purified PLD4 antibody concentration. The frequency of staining positive cell and the antibody were data-analyzed using Graph Pad Prism version 5 software, and the dissociation constant molar concentration (Kd value) was computed in nM unit.

[4] = target: T4, human PLD4 (phospholipase D4) protein (UniProt Q96BZ4 1-506); assay: binding to human PLD4-CT125 stable cells; apparent Kd
T4 chain: T3 sequence

[5] = target: T1, cynomolgus monkey PLD4; assay: FACS, hybridoma culture supernatant on cynomolgus monkey PLD4-CT125 cells; non-binding implied (10C3 is not among the seven)
[6] = target: T2, rhesus monkey PLD4; assay: FACS, hybridoma culture supernatant on rhesus monkey PLD4-293T transient transfectants; non-binding implied (10C3 is not among the seven)
[7] = target: T2, rhesus monkey PLD4; assay: FACS, hybridoma culture supernatant on rhesus monkey PLD4-293T transient transfectants; non-binding implied (11D10 is not among the seven)
[8] = target: T1, cynomolgus monkey PLD4; assay: FACS, hybridoma culture supernatant on cynomolgus monkey PLD4-CT125 cells; non-binding implied (11D10 is not among the seven)

B1: anti-PLD4 mouse 8C11 antibody (antibody, mouse IgG2b, V domains shown)
VH: QVQLQQSGAELVKPGASVKLSCKASGYTFTSYYLYWVRQRPGQGLEWIGLINPTNSDTIFNEKFKSKATLTVDKSSSTAYMQLSSLTSEDSAVYYCTREGGYGYGPFAYWGQGTLVTVSA
VL: DVVMTQTPLSLPVSLGDQASISCTSSQTLVHSNGNTYLHWYLQKPGQSPKLLIYKVSNRFSGVPDRFSGSGSGTDFTLKISRVEAEDLGVYFCSHSTHVPFTFGSGTKLEIKR
notes: Tested as hybridoma culture supernatant and as purified antibody
binding result [1]: no binding | binding result [2]: no binding | Kd [3]: ≤ 1 nM | Kd [4]: 0.085 nM

B2: anti-PLD4 mouse 10C3 antibody (antibody, mouse IgG2a, V domains shown)
VH: EVQLVESGGDLVRPGGSLKLSCAASGFSFSSYGMSWFRQTPDKRLEWVATISSGGSYIYYPESVKGRFTISRDNARNILYLQMSSLKSEDTAMYYCVRLYGGRRGYGLDYWGQGTSVTVSS
VL: EIVMTQAAFSNPVTLGTSASISCRSSKSLLHSDGITYLYWYLQKPGQSPQLLIYQMSNLASGVPDRFSSSGSGTDFTLRISRVEAEDVGVYYCAQNLELYTFGGGTKLEIKR
notes: as for B1
binding result [5]: no binding | Kd [3]: ≤ 1 nM | binding result [6]: no binding | Kd [4]: 0.228 nM

B3: anti-PLD4 mouse 11D10 antibody (antibody, mouse IgG2b, V domains shown)
VH: B2 VH
VL: B2 VL
notes: as for B1
binding result [7]: no binding | binding result [8]: no binding | Kd [3]: ≤ 1 nM | Kd [4]: 0.192 nM
